# Reference: CN1827647A (SHANGHAI ZHANGJIANG BIO TECH C, dated 2006)
# Biological target: T1, EGFR蛋白 (表皮生长因子受体, 购自晶美生物公司) (UniProt P00533 25-645, limits assumed)
# T1 construct: Bought protein used as the coating antigen; also called c-erbB1/Her1
# Experiment: Scatchard analysis; concluding sentence on the result
binder,measurement,value
"3C6单克隆抗体 (重组人源抗EGFR单克隆抗体, produced by CHO cell line 3C6) (antibody, V domains shown) VH: QVQLKESGPGLVAPSQSLSITCTVSGFSLTNYGVHWVRQPPGKGLEWLGVIWSGGNTDYNTPFTSRLNISKDNSKSQVFLRMYSLQTDDTARYYCARALTYYDYEFAYWGQGTLVTVSS VL: not shown",Kd,~1 nM
